Source: article PMC12049944
Each block holds one substance with its values, some of them ahead of it.

Legend:
Experiment in all cases: cross-linking; intermolecular disulfides between Cys residues introduced in helices 4 and 6 of APOA1 in rHDL; SDS-PAGE under reducing and oxidising conditions
[1] = molecular target: APOA1 double Cys mutant M112C/M148C in rHDL (human)
[2] = molecular target: APOA1 double Cys mutant Y115C/E147C in rHDL (human)
[3] = molecular target: APOA1 double Cys mutant K107C/H155C in rHDL (human)
[4] = molecular target: APOA1 double Cys mutant Y100C/M162C in rHDL (human)

percent dimer (oxidising conditions) [1]: 50%
Substance: APOA1 double Cys mutant M112C/M148C in rHDL

percent of APOA1 remaining monomeric (oxidising conditions) [2]: 10%
Substance: APOA1 double Cys mutant Y115C/E147C in rHDL

percent of APOA1 remaining monomeric (oxidising conditions) [3]: 10%
Substance: APOA1 double Cys mutant K107C/H155C in rHDL

percent of APOA1 remaining monomeric (oxidising conditions) [4]: 10%
Substance: APOA1 double Cys mutant Y100C/M162C in rHDL (natural protein)
